# Patent US20250051413A1 (ASKGENE PHARMA, published 2025)
# B1: ASKG129C (Fc fusion)
# chain 1: QVQLVQSGVEVKKPGASVKVSCKASGYTFTNYYMYWVRQAPGQGLEWMGGINPSNGGTNFNEKFKNRVTLTTDSSTTTAYMELKSLQFDDTAVYYCARRDYRFDMGFDYWGQGTTVTVSSASTKGPSVFPLAPSSKSTSGGTAALGCLVKDYFPEPVTVSWNSGALTSGVHTFPAVLQSSGLYSLSSVVTVPSSSLGTQTYICNVNHKPSNTKVDKKAEPKSCDKTHTCPPCPAPEAAGAPSVFLFPPKPKDTLYITREPEVTCVVVDVSHEDPEVKFNWYVDGVEVHNAKTKPREEQYNSTYRVVSVLTVLHQDWLNGKEYKCKVSNKALPAPIEKTISKAKGQPREPQVYTLPPSREEMTKNQVSLTCLVKGFYPSDIAVEWESNGQPENNYKTTPPVLDSDGSFFLYSKLTVDKSRWQQGNVFSCSVMHEALHNHYTQKSLSLSPGGGGSGGGGSAAGGGGSGGGGSDIQMTQSPSSLSASVGDRVTITCRASQGISSWLAWYQQKPEKAPKSLIYAASSLQSGVPSRFSGSGSGTDFTLTISSLQPEDFATYYCQQYNIYPYTFGQGTKLEIKSGGGGSGGGGSGGGGSEVQLVQSGAEVKKPGESLKISCKGSGYSFTTYWLGWVRQMPGKGLDWIGIMSPVDSDIRYSPSFQGQVTMSVDKSITTAYLQWNSLKASDTAMYYCARRRPGQGYFDFWGQGTLVTVSS
# chain 2: EVQLVESGGGLVQPGGSLRLSCAASGYTVSSYCMGWFRQAPGKGREGVSAIDSDGSVSYADSVKGRFTISKDNSKNTLYLQMNSLRAEDTAVYFCAADLCWVDQDQGEYNTWGQGTLVTVSSGSEPKSSDKTHTCPPCPAPEAAGGPSVFLFPPKPKDTLYITREPEVTCVVVDVSHEDPEVKFNWYVDGVEVHNAKTKPREEQYNSTYRVVSVLTVLHQDWLNGKEYKCKVSNKALPAPIEKTISKAKGQPREPQVYTLPPSREEMTKNQVSLTCLVKGFYPSDIAVEWESNGQPENNYKTTPPVLDSDGSFFLYSKLTVDKSRWQQGNVFSCSVMHEALHNHYTQKSLSLSPGGGGSGGGGSAAGGGGSGGGGSDIQMTQSPSSLSASVGDRVTITCRASQGISSWLAWYQQKPEKAPKSLIYAASSLQSGVPSRFSGSGSGTDFTLTISSLQPEDFATYYCQQYNIYPYTFGQGTKLEIKSGGGGSGGGGSGGGGSEVQLVQSGAEVKKPGESLKISCKGSGYSFTTYWLGWVRQMPGKGLDWIGIMSPVDSDIRYSPSFQGQVTMSVDKSITTAYLQWNSLKASDTAMYYCARRRPGQGYFDFWGQGTLVTVSS
# Molecular target: human IL-12 receptor (b1 and b2 chain) (human, UniProt P42701 24-662; Q99665 24-862)
# Sequence (Q99665 24-862, chain 2 of 2, other chains not shown): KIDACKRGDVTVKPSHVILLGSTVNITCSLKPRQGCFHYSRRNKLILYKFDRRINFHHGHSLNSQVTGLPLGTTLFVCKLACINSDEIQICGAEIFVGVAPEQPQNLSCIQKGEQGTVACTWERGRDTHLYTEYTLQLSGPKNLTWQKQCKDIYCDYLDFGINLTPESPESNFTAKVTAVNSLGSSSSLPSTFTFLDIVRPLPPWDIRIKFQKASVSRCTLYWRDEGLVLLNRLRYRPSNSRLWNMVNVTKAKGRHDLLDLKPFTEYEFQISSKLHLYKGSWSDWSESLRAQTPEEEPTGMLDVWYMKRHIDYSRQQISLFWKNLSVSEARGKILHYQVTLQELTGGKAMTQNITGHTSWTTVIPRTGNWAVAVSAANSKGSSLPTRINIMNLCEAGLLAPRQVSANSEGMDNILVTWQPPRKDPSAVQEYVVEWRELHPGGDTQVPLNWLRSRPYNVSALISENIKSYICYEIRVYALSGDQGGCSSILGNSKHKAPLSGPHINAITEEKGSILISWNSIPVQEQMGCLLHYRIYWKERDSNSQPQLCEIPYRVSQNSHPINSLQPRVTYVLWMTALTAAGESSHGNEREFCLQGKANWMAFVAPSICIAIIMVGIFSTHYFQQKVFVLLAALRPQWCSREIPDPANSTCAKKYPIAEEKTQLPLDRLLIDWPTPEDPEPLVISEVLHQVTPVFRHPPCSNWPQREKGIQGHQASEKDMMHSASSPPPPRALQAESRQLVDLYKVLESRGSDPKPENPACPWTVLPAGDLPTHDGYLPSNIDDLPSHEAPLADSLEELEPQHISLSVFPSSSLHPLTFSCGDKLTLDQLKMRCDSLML
# Experiment: cell-based or functional assay
binder,measurement,value
B1,"EC50 of p-STAT4 induction in human PBMC, CD4+ T cells",2.52 nM
same,"EC50 of p-STAT4 induction in human PBMC, CD8+ T cells",2.09 nM
same,"EC50 of p-STAT4 induction in human PBMC, NK cells",3.75 nM
same,"fold decrease in cytokine releasing assay with human PBMC, activity relative to IL-12",~1000 times
